B1: PfPIMMS43 nanobody E1 (VHH)
VHH: EVQLVESGGGLVQAGDSLRLSCAASDSTFSIYVMGWFRQAPGKEREFVAAITGSGGNTNYADSVKGRFTVSRDNAKHTVYLQMNSLKPEDAAVYYCAAGGSYSRSSLNYPYWGQGTQVTVSS
notes: llama VHH; From an immune llama library (Eurogentec, pQ81 phagemid)
B2: PfPIMMS43 nanobody A5 (VHH)
VHH: EVQLVESGGGLVQAGVSLRLSCAASGRSLSNYAMGWFRQAPGKEREFVASITGSGSSTYYLNSVKGRFIISKDNAKNTVYLQMNSLKPEDTAVYYCAADSTGVARYTNRYDYWGQGTRVTVSS
notes: as for B1
B3: PfPIMMS43 nanobody E2 (VHH)
VHH: EVQLVESGGGLVQAGGSLRLSCAASGLTFNGDSMGWFRQAPGKEREFVAAIRWNEVAYYADFVKGRFTISRDNAKNTVTLQMNSLKPEDTAVYYCGAGVRAYSYTTRLTSASEYTYWGQGTQVTVSS
notes: llama VHH; From an immune llama library (Eurogentec, pQ81 phagemid); CDR2 of 7 amino acids
B4: PfPIMMS43 nanobody A3 (VHH)
VHH: EVQLVESGGGLVQPGGSLRLSCAASGSIFDKNGMGWFRQPPGRQRELVASITTDGNKHYGDDAKGRFTISRDIAKKTAYLQMNSLKPEDTAVYYCATTRGNYYSKSPPPIYDYYYWGQGTQVTVSS
notes: as for B3
B5: PfPIMMS43 nanobody G9 (VHH)
VHH: EVQLVESGGGLVQAGGSLRLSCAASEGTFSDYGMGWFRQAPGKEREFVASISWSGGRTGYRSSVKGRFTISRDNAKNTVYLQMNSLKPEDTAVYYCGAMSKYYRGDWSSRVTNYDDWGQGTQVTVSS
notes: llama VHH; From an immune llama library (Eurogentec, pQ81 phagemid); CDR3 of 20 amino acids
B6: PfPIMMS43 nanobody B11 (VHH)
VHH: EVQLVESGGGLVRAGDSLRLSCAASGTPLSSYTMGWFRQAPGKEREFVAASCWRGGSAYDADSIEGRFTISRDNAKNTVYLQMNSLKPEDTAVYYCAAVFAYICSSYGNRSPSRYGYWGQGTQVTVSS
notes: as for B1
B7: PfPIMMS43 nanobody C12 (VHH)
VHH: EVQLVESGGGLVQAGGSLRLSCVDSGRTLSSYTMGWFRQAPGKEREFVAAVHYTGRRTYYADSVKGRFTISRDNDKNTVLLQMNSLKPEDTAVYYCAATEPPHSDYSTRLYNYHYWGQGTQVTVSS
notes: as for B1
B8: PfPIMMS43 nanobody E5 (VHH)
VHH: EVQLVESGGGLVQAGGSLRLSCAASGIHFNFKAMAWYRQAPGKQRELVAAIAPDDDTNYADSVKGRFTISRDNAKNTVYLQMNSLKPEDTAVYYCNTRIRIDYWGQGTQVTVSS
notes: llama VHH; From an immune llama library (Eurogentec, pQ81 phagemid); CDR2 of 7 and CDR3 of 8 amino acids
B9: PfPIMMS43 nanobody H6 (VHH)
VHH: EVQLVESGGALVQAGNSLRLSCAASGRTFRSYVMGWFRQAPEKEREFVARIGWSAGSTYYTDSVKGRFTISRDDAKNTVYLQMNSLKPEDTAVYYCAAGRGYSDYDPSVGYGYWGQGTQVTVSS
notes: as for B1

biological target: T1, recombinant Thioredoxin-His-tagged PfPIMMS43 (amino acids 26-481), full-length (FL) recombinant PfPIMMS43 (Plasmodium falciparum, 3D7 entry (NF54 …, UniProt C6KT40)); assay: ELISA; dose response ELISA; MaxiSorp plates coated with 2 ug/mL recombinant PfPIMMS43 in PBS overnight, blocked with 4% skimmed milk; VHH from 1000 nM in serial 1:10 dilutions, 1 h at room temperature; detected with rabbit anti-VHH and donkey anti-rabbit HRP, OPD, 490 nm; conditions: both partners purified
T1 construct: PfPIMMS43 (PSOP25) of Plasmodium falciparum, a 505-amino acid protein; E. coli codon-optimised; the methods give 25-481; pET-32b vector; Results give 26-481, methods 25-481; also called TRX-His-PfPIMMS43; PSOP25; not shown: Thioredoxin (TRX), N-terminal, kept; His6, N-terminal, kept; His6, C-terminal, kept
T1 sequence (C6KT40 26-481): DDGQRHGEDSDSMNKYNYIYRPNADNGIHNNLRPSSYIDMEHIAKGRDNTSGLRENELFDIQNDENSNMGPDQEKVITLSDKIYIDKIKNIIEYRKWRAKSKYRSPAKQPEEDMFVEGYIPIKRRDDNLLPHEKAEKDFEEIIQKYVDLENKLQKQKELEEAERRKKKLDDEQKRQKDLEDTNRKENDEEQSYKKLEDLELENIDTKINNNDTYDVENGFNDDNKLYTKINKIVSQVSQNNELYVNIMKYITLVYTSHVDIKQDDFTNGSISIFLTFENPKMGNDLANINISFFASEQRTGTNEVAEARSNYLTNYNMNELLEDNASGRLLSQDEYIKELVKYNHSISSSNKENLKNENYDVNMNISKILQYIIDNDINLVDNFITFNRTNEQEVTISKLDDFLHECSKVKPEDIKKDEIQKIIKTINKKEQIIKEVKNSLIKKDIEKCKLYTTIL

Which “binding affinity (dose response ELISA)” value does the source give for B1 here?
The value was > 50 nM.

B2 was tested. Which “binding affinity (dose response ELISA)” value did it give?
Its value is > 50 nM.

Which “binding affinity (dose response ELISA)” value does the source give for B3 here?
The value was 8 nM.

B4 was tested. Which “binding affinity (dose response ELISA)” value did it give?
Its value is > 50 nM.

B5 was tested. Which “binding affinity (dose response ELISA)” value did it give?
Its value is 3 nM.

With B6 as the binder, how does the “binding affinity (dose response ELISA)” value read?
Its value is > 50 nM.

With B7 as the binder, how does the “binding affinity (dose response ELISA)” value read?
The value was 6 nM.

For B8, which “binding affinity (dose response ELISA)” value is on record?
Its value is 5 nM.

B9 was tested. Which “binding affinity (dose response ELISA)” value did it give?
The value was > 50 nM.

biological target: T2, endogenous PfPIMMS43 produced by P. falciparum NF54 ookinetes (Plasmodium falciparum NF54 (entry 3D7, …, UniProt C6KT40)); assay: far-Western, overlay or dot blot; reduced lysates of P. falciparum NF54-infected An. coluzzii midguts (18 h post blood meal) on 10% SDS-PAGE, blotted to PVDF, probed with nanobody, detected with anti-MYC antibody; non-infected blood-fed midguts as control; conditions: one partner purified
T2 construct: PfPIMMS43 (PSOP25) of Plasmodium falciparum NF54, a 505-amino acid protein with an N-terminal signal peptide and a C-terminal GPI anchor; seen as a ~60 kDa band; GPI-anchored surface protein of ookinetes; also called ~60 kDa PfPIMMS43 protein; PSOP25; source: endogenous, lysate of P. falciparum NF54-infected An. coluzzii midguts, 18 h post blood feeding
T2 sequence (C6KT40 25-505): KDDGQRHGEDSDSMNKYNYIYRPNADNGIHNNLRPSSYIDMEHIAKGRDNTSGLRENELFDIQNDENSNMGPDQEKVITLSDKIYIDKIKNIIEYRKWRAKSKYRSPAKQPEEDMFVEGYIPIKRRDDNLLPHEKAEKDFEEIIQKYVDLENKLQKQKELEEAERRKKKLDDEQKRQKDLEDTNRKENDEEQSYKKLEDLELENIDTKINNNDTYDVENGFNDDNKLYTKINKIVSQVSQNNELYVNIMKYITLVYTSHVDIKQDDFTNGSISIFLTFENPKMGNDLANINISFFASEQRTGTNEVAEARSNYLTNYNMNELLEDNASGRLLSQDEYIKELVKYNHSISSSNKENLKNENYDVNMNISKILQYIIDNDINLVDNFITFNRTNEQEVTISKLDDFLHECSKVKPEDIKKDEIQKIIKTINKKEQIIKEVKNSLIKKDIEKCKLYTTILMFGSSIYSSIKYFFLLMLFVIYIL

Does B7 bind?
Result: binds
